Numbering of substitutions follows the chain as printed.
Tests used:
[1] = substrate: T1, BNP single alanine substituted peptide, F11 to alanine (human); assay: BIAcore SPR, AM1 captured on goat anti-human Fc, peptide at 10 nM, 1800 s dissociation
T1 sequence (peptide, cyclic hBNP 1-32): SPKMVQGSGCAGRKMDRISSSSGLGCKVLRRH

[2] = substrate: T2, BNP single alanine substituted peptide, R13 to alanine (human); assay: as above
T2 sequence (peptide, cyclic hBNP 1-32): T1 sequence (peptide, cyclic hBNP 1-32) with A11F, R13A

B1: 106.3 AM1 chimeric antibody (antibody, V domains shown)
VH: QIQLVQSGPELRKPGETVKISCKGSGYTFTHYGINWVKQTPRKDLKWMGWINTHTGEAYYADDFKGRFAFSLETSANTAYLQINNLNNGDMGTYFCTRSHRFGLDYWGQGTSVTVSS
VL: DNVLTQSPPSLAVSLGQRATISCKANWPVDYNGDSYLNWYQQKPGQPPKFLIYAASNLESGIPARFSGSGSGTDFNLNIHPVEEEDAATYYCQQSNEDPFTFGSGTKLEIK
modifications: Conjugated to acridinium or biotinylated in the sandwich assays (Examples 4 and 7); the sites are not defined.
With B1 the fold increase in off-rate against WT BNP [1] was > 10 fold and the fold increase in off-rate against WT BNP [2] was > 10 fold.
